Measurements published in US20250361274A1, “PEPTIDE AND PEPTIDE-CONTAINING AGENT” (PEPTIDREAM INC., priority 2022, published 2025).
Numbered stars: 1 amine (or outer) side, 2 acyl side, 3 side chain; on linkers, the order of the positions; unused ones are H or OH. Square brackets hold non-standard residues; d marks the D form. Ends that are not written are not given here. Bph3OMe = (S)-2-amino-3-(3'-methoxy-[1,1'-biphenyl]-4-yl)propanoic acid, COc1cccc(-c2ccc(C[C@H](N[*:1])C(=O)[*:2])cc2)c1; KCOpipzaa = N6-(4-(carboxymethyl)piperazine-1-carbonyl)-L-lysine, O=C(NCCCC[C@H](N[*:1])C(=O)[*:2])N1CCN(CC(=O)[*:3])CC1; Cha4tH = (S)-2-amino-3-((1r,4S)-4-hydroxycyclohexyl)propanoic acid, O=C([C@H](C[C@H]1CC[C@H](O[*:3])CC1)N[*:1])[*:2]; F4aao = (S)-2-amino-3-(4-(carboxymethoxy)phenyl)propanoic acid, O=C([C@H](Cc1ccc(OCC(=O)[*:3])cc1)N[*:1])[*:2]; 3Pal(6-Ph) = N[C@@H](Cc1ccc(-c2ccccc2)nc1)C(=O)O; Phe(4-COOH) = N[C@@H](Cc1ccc(C(=O)O)cc1)C(=O)O; Bip = N[C@@H](Cc1ccc(-c2ccccc2)cc1)C(=O)O; Abu(4,4,4-F3) = N[C@@H](CC(F)(F)F)C(=O)O; Ala(4-THP) = N[C@@H](CC1CCOCC1)C(=O)O; Gly(4-THP) = N[C@H](C(=O)O)C1CCOCC1; Hyp = O=C(O)[C@@H]1C[C@@H](O)CN1; 4Pal = N[C@@H](Cc1ccncc1)C(=O)O; Gly(cPr) = N[C@H](C(=O)O)C1CC1; βAla = NCCC(=O)O

Key:
BMP7 = target: T1, BMP7 (Homo sapiens, UniProt P18075); test: BMP7 signal transduction inhibitory activity: SMAD1 phosphorylation by BMP7 stimulus, A549 cells; format: cell-based; conditions: BMP7 10 nM stimulus, class symbols
T1 sequence (P18075 293-431): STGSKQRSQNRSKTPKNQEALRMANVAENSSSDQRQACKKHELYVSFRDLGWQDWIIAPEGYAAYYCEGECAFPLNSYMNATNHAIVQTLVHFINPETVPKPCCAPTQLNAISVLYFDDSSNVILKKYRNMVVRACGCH
Summary of the method: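 A549 cells were stimulated with 10 nM BMP7, and peptide inhibition of signalling was measured as SMAD1 phosphorylation. Peptides were tested at three concentrations, in sets ranging from 1–100 nM to 100–1,000 nM, or as eight-point 1/3 dilution series starting at 100 nM or 1,000 nM.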

BMP4 = target: T2, BMP4 (Homo sapiens, UniProt P12644); test: BMP4 signal transduction inhibitory activity: SMAD1 phosphorylation by BMP4 stimulus, AlphaLISA SureFire, A549 cells; format: cell-based; conditions: BMP4 0.2 nM stimulus; peptide conc. in assay 0.02, 0.2, 2 nM; class symbols
T2 sequence (P12644 293-408): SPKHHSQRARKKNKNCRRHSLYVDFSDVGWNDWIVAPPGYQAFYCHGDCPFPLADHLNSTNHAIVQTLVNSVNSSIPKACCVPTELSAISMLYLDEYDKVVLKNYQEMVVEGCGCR

[1] = peptide conc. in assay 10, 100, 1000 nM
[2] = peptide conc. in assay 100, 300, 1000 nM

Substance | aLIZA BMP7 (10 nM) % inh (BMP7; [1]) | aLIZA BMP4 (0.2 nM) % inh (BMP4) | aLIZA BMP7 (10 nM) % inh (BMP7; [2])
266 (QRVYVDR[3Pal(6-Ph)]SYV[Bip][4Pal][Phe(4-COOH)][Phe(4-COOH)]SCG-NH2; not fully specified) [compound 266] | ND (the inhibitory activity was less than 30% at the maximum concentration evaluated) | C (showed less than 30% of inhibitory activity in 0.2 nM-addition zone and showed 30% or more of inhibitory activity in 2 nM-addition zone) | –
270 (QRV[F4aao]VDR[3Pal(6-Ph)]SYV[Bip][4Pal][Phe(4-COOH)][Phe(4-COOH)]SCG-NH2; not fully specified) [compound 270] | ND (the inhibitory activity was less than 30% at the maximum concentration evaluated) | C (showed less than 30% of inhibitory activity in 0.2 nM-addition zone and showed 30% or more of inhibitory activity in 2 nM-addition zone) | –
271 (ERV[Phe(4-COOH)][Abu(4,4,4-F3)]DR[3Pal(6-Ph)]SYV[Bip][4Pal][Phe(4-COOH)][Phe(4-COOH)]SCG-NH2) [compound 271] | ND (the inhibitory activity was less than 30% at the maximum concentration evaluated) | C (showed less than 30% of inhibitory activity in 0.2 nM-addition zone and showed 30% or more of inhibitory activity in 2 nM-addition zone) | –
272 (ERV[Phe(4-COOH)][Gly(cPr)]DR[3Pal(6-Ph)]SYV[Bip][4Pal][Phe(4-COOH)][Phe(4-COOH)]SCG-NH2; not fully specified (N-terminus, bridges)) [compound 272] | ND (the inhibitory activity was less than 30% at the maximum concentration evaluated) | C (showed less than 30% of inhibitory activity in 0.2 nM-addition zone and showed 30% or more of inhibitory activity in 2 nM-addition zone) | –
273 (ERV[Phe(4-COOH)]VDR[3Pal(6-Ph)][KCOpipzaa]YV[Bip][4Pal][Phe(4-COOH)][Phe(4-COOH)]SCG-NH2; not fully specified) [compound 273] | ND (the inhibitory activity was less than 30% at the maximum concentration evaluated) | C (showed less than 30% of inhibitory activity in 0.2 nM-addition zone and showed 30% or more of inhibitory activity in 2 nM-addition zone) | –
275 (ERV[Phe(4-COOH)]VDR[3Pal(6-Ph)][KCOpipzaa]Y[Hyp][Bip]Y[Phe(4-COOH)][Phe(4-COOH)]SCG-NH2; not fully specified) [compound 275] | – | B (showed less than 30% of inhibitory activity in 0.02 nM-addition zone and showed 30% or more of inhibitory activity in 0.2 nM-addition zone) | G (showed less than 30% of inhibitory activity in 100 nM-addition zone and showed 30% or more of inhibitory activity in 300 nM-addition zone)
276 (ERV[Phe(4-COOH)]V[KCOpipzaa]R[3Pal(6-Ph)][KCOpipzaa]Y[Hyp][Bip][4Pal][Phe(4-COOH)][Phe(4-COOH)]SCG-NH2; not fully specified) [compound 276] | – | B (showed less than 30% of inhibitory activity in 0.02 nM-addition zone and showed 30% or more of inhibitory activity in 0.2 nM-addition zone) | ND (the inhibitory activity was less than 30% at the maximum concentration evaluated)
278 (E[KCOpipzaa]V[Phe(4-COOH)]V[KCOpipzaa]R[3Pal(6-Ph)][KCOpipzaa]Y[Hyp][Bip][4Pal][Phe(4-COOH)][Phe(4-COOH)]SCG-NH2; not fully specified) [compound 278] | – | C (showed less than 30% of inhibitory activity in 0.2 nM-addition zone and showed 30% or more of inhibitory activity in 2 nM-addition zone) | ND (the inhibitory activity was less than 30% at the maximum concentration evaluated)
280 (ERV[Phe(4-COOH)]VDR[3Pal(6-Ph)][KCOpipzaa]Y[Hyp][Bip][4Pal][Phe(4-COOH)][Phe(4-COOH)]SC[βAla]) [compound 280] | – | B (showed less than 30% of inhibitory activity in 0.02 nM-addition zone and showed 30% or more of inhibitory activity in 0.2 nM-addition zone) | H (showed less than 30% of inhibitory activity in 300 nM-addition zone and showed 30% or more of inhibitory activity in 1,000 nM-addition zone)
281 (ERV[Phe(4-COOH)]VDR[3Pal(6-Ph)][KCOpipzaa]YV[Bip][4Pal][Phe(4-COOH)][Phe(4-COOH)]SC[βAla]) [compound 281] | – | C (showed less than 30% of inhibitory activity in 0.2 nM-addition zone and showed 30% or more of inhibitory activity in 2 nM-addition zone) | ND (the inhibitory activity was less than 30% at the maximum concentration evaluated)
283 (ERV[Phe(4-COOH)]V[KCOpipzaa]R[3Pal(6-Ph)][KCOpipzaa]Y[Hyp][Bip][4Pal][Phe(4-COOH)][Phe(4-COOH)]SC[βAla]) [compound 283] | – | B (showed less than 30% of inhibitory activity in 0.02 nM-addition zone and showed 30% or more of inhibitory activity in 0.2 nM-addition zone) | H (showed less than 30% of inhibitory activity in 300 nM-addition zone and showed 30% or more of inhibitory activity in 1,000 nM-addition zone)
284 (ERV[Phe(4-COOH)]V[KCOpipzaa]R[3Pal(6-Ph)][KCOpipzaa]YV[Bip][4Pal][Phe(4-COOH)][Phe(4-COOH)]SC[βAla]) [compound 284] | – | C (showed less than 30% of inhibitory activity in 0.2 nM-addition zone and showed 30% or more of inhibitory activity in 2 nM-addition zone) | ND (the inhibitory activity was less than 30% at the maximum concentration evaluated)
285 (E[KCOpipzaa]V[Phe(4-COOH)]V[KCOpipzaa]R[3Pal(6-Ph)][KCOpipzaa]Y[Hyp][Bip][4Pal][Phe(4-COOH)][Phe(4-COOH)]SC[βAla]) [compound 285] | – | C (showed less than 30% of inhibitory activity in 0.2 nM-addition zone and showed 30% or more of inhibitory activity in 2 nM-addition zone) | H (showed less than 30% of inhibitory activity in 300 nM-addition zone and showed 30% or more of inhibitory activity in 1,000 nM-addition zone)
286 (ERV[Phe(4-COOH)]VDR[3Pal(6-Ph)][KCOpipzaa]Y[Hyp][Bip][4Pal][Phe(4-COOH)][Phe(4-COOH)]SC[βAla][dE]-OH; not fully specified (N-terminus, bridges); also: cyclic peptide, ring not given here) [compound 286] | – | B (showed less than 30% of inhibitory activity in 0.02 nM-addition zone and showed 30% or more of inhibitory activity in 0.2 nM-addition zone) | G (showed less than 30% of inhibitory activity in 100 nM-addition zone and showed 30% or more of inhibitory activity in 300 nM-addition zone)
287 (ERV[Phe(4-COOH)][Ala(4-THP)][KCOpipzaa]R[3Pal(6-Ph)][KCOpipzaa]Y[Hyp][Bip][4Pal][Phe(4-COOH)][Phe(4-COOH)]SCG-NH2; not fully specified (N-terminus, bridges); also: cyclic peptide, ring not given here) [compound 287] | – | C (showed less than 30% of inhibitory activity in 0.2 nM-addition zone and showed 30% or more of inhibitory activity in 2 nM-addition zone) | H (showed less than 30% of inhibitory activity in 300 nM-addition zone and showed 30% or more of inhibitory activity in 1,000 nM-addition zone)
288 (ERV[Phe(4-COOH)][Cha4tH][KCOpipzaa]R[3Pal(6-Ph)][KCOpipzaa]Y[Hyp][Bip][4Pal][Phe(4-COOH)][Phe(4-COOH)]SCG-NH2; not fully specified (N-terminus, bridges); also: cyclic peptide, ring not given here) [compound 288] | – | B (showed less than 30% of inhibitory activity in 0.02 nM-addition zone and showed 30% or more of inhibitory activity in 0.2 nM-addition zone) | F (showed 30% or more of inhibitory activity in 100 nM-addition zone)
289 (ERV[Phe(4-COOH)][Gly(4-THP)][KCOpipzaa]R[3Pal(6-Ph)][KCOpipzaa]Y[Hyp][Bip][4Pal][Phe(4-COOH)][Phe(4-COOH)]SCG-NH2; not fully specified (N-terminus, bridges); also: cyclic peptide, ring not given here) [compound 289] | – | C (showed less than 30% of inhibitory activity in 0.2 nM-addition zone and showed 30% or more of inhibitory activity in 2 nM-addition zone) | ND (the inhibitory activity was less than 30% at the maximum concentration evaluated)
294 (ERV[Phe(4-COOH)][Cha4tH][KCOpipzaa]R[3Pal(6-Ph)][KCOpipzaa]Y[Hyp][Bip]Y[Phe(4-COOH)][Phe(4-COOH)]SCG-NH2; not fully specified) [compound 294] | – | B (showed less than 30% of inhibitory activity in 0.02 nM-addition zone and showed 30% or more of inhibitory activity in 0.2 nM-addition zone) | F (showed 30% or more of inhibitory activity in 100 nM-addition zone)
296 (ERV[Phe(4-COOH)]V[KCOpipzaa]R[3Pal(6-Ph)][KCOpipzaa]Y[Hyp][Bph3OMe]Y[Phe(4-COOH)][Phe(4-COOH)]SCG-NH2; not fully specified (N-terminus, bridges); also: cyclic peptide, ring not given here) [compound 296] | – | B (showed less than 30% of inhibitory activity in 0.02 nM-addition zone and showed 30% or more of inhibitory activity in 0.2 nM-addition zone) | ND (the inhibitory activity was less than 30% at the maximum concentration evaluated)
